This experiment deals with activated complement component C3 (C3b) (UniProt P01024). Nature of the experiment: SPR.

For 1 substance, response (RU), median, C3b-chip 2 results are on record in article PMC10695638.

The substance Factor B (natural protein) came in with a response (RU), median, C3b-chip 2 of 17 RU.
